Results on 15 molecules are retold here after patent US20210380703A1.

To fix the notation:
B1: 374_F08 (antibody, V domains shown)
VH: EVQLLESGGGLVQPGGSLRLSCAASGFTFDSYSMNWVRQAPGKGLEWVSGINYNGGYKSYADSVKGRFTISRDNSKNTLYLQMNSLRAEDTAVYYCARGANWHDTALDYWGQGTLVTVSS
VL: DIQMTQSPSSLSASVGDRVTITCRASQSILTYVNWYQQKPGKAPKLVIYAVTSRASGVPSRFSGSGSGTDFTLTISSLQPEDFATYYCQQSYDTPLTFGGGTKVEIK
B2: 374_G10 (antibody, V domains shown)
VH: EVQLLESGGGLVQPGGSLRLSCAASGFTFSSYSMNWVRQAPGKGLEWVSSINYNSGYTSYADSVKGRFTISRDNSKNTLYLQMNSLRAEDTAVYYCARGANWHDTHLDYWGQGTLVTVSS
VL: DIQMTQSPSSLSASVGDRVTITCRASQSIVSYLNWYQQKPGKAPKLVIYAVTSRASGVPSRFSGSGSGTDFTLTISSLQPEDFATYYCQQSYDSPLTFGGGTKVEIK
B3: 375_A08 (antibody, V domains shown)
VH: EVQLLESGGGLVQPGGSLRLSCAASGFTFSSYSMNWVRQAPGKGLEWVAGINYNGGYTGYADSVKGRFTISRDNSKNTLYLQMNSLRAEDTAVYYCARGANWHDTALDYWGQGTLVTVSS
VL: DIQMTQSPSSLSASVGDRVTITCRASQSIVTYLNWYQQKPGKAPKLLIYAATSRASGVPSRFSGSGSGTDFTLTISSLQPEDFATYYCQQSYESPLTFGGGTKVEIK
B4: 375_A12 (antibody, V domains shown)
VH: EVQLLESGGGLVQPGGSLRLSCAASGFTFSSYSMNWVRQAPGKGLEWVSGINYNSGYKSYADSVKGRFTISRDNSKNTLYLQMNSLRAEDTAVYYCARGANWHDTALDYWGQGTLVTVSS
VL: DIQMTQSPSSLSASVGDRVTITCRASQSILSYLNWYQQKPGKAPKLVIYAVTSRASGVPSRFSGSGSGTDFTLTISSLQPEDFATYYCQQSYETPLTFGGGTKVEIK
B5: 374_H01 (antibody, V domains shown)
VH: EVQLLESGGGLVQPGGSLRLSCAASGFTFDSYSMNWVRQAPGKGLEWVAGINYNGGYTSYADSVKGRFTISRDNSKNTLYLQMNSLRAEDTAVYYCARGANWHDTHLDYWGQGTLVTVSS
VL: DIQMTQSPSSLSASVGDRVTITCRASQSILSYLNWYQQKPGKAPKLVIYAATSLASGVPSRFSGSGSGTDFTLTISSLQPEDFATYYCQQSYENPLTFGGGTKVEIK
B6: 375_C04 (antibody, V domains shown)
VH: EVQLLESGGGLVQPGGSLRLSCAASGFTFSDYSMNWVRQAPGKGLEWVAGINYNGGYTSYADSVKGRFTISRDNSKNTLYLQMNSLRAEDTAVYYCARGANWHDTALDYWGQGTLVTVSS
VL: DIQMTQSPSSLSASVGDRVTITCRASQSILTYLNWYQQKPGKAPKLVIYAATSRASGVPSRFSGSGSGTDFTLTISSLQPEDFATYYCQQSYESPLTFGGGTKVEIK
B7: 375_B12 (antibody, V domains shown)
VH: EVQLLESGGGLVQPGGSLRLSCAASGFTFDSYSMNWVRQAPGKGLEWVAGINYNGGYKSYADSVKGRFTISRDNSKNTLYLQMNSLRAEDTAVYYCARGANWHDTALDYWGQGTLVTVSS
VL: DIQMTQSPSSLSASVGDRVTITCRASQSIVTYLNWYQQKPGKAPKLLIYAATSRASGVPSRFSGSGSGTDFTLTISSLQPEDFATYYCQQSYDTPLTFGGGTKVEIK
B8: 374_G03 (antibody, V domains shown)
VH: EVQLLESGGGLVQPGGSLRLSCAASGFTFSDYSMNWVRQAPGKGLEWVSGINYNGGYTSYADSVKGRFTISRDNSKNTLYLQMNSLRAEDTAVYYCARGANWHDTALDYWGQGTLVTVSS
VL: DIQMTQSPSSLSASVGDRVTITCRASQSISSYLNWYQQKPGKAPKLVIYAATSRASGVPSRFSGSGSGTDFTLTISSLQPEDFATYYCQQSDDTPLTFGGGTKVEIK
B9: 374_G09 (antibody, V domains shown)
VH: EVQLLESGGGLVQPGGSLRLSCAASGFTFSSYSMNWVRQAPGKGLEWVAGINYNGGYKGYADSVKGRFTISRDNSKNTLYLQMNSLRAEDTAVYYCARGANWHDTHLDYWGQGTLVTVSS
VL: DIQMTQSPSSLSASVGDRVTITCRASQSIVRYLNWYQQKPGKAPKLVIYAATSLASGVPSRFSGSGSGTDFTLTISSLQPEDFATYYCQQSYELPLTFGGGTKVEIK
B10: 375_A07 (antibody, V domains shown)
VH: EVQLLESGGGLVQPGGSLRLSCAASGFTFDSYSMNWVRQAPGKGLEWVSSINYNSGYTGYADSVKGRFTISRDNSKNTLYLQMNSLRAEDTAVYYCARGANWHDTHLDYWGQGTLVTVSS
VL: DIQMTQSPSSLSASVGDRVTITCRASQSILTYLNWYQQKPGKAPKLLIYAATSRASGVPSRFSGSGSGTDFTLTISSLQPEDFATYYCQQSYDTPLTFGGGTKVEIK
B11: 374_G08 (antibody, V domains shown)
VH: EVQLLESGGGLVQPGGSLRLSCAASGFTFDSYSMNWVRQAPGKGLEWVSGINYNGGYTSYADSVKGRFTISRDNSKNTLYLQMNSLRAEDTAVYYCARGANWHDTALDYWGQGTLVTVSS
VL: DIQMTQSPSSLSASVGDRVTITCRASQSILTYVNWYQQKPGKAPKLVIYAATSRASGVPSRFSGSGSGTDFTLTISSLQPEDFATYYCQQSYDSPLTFGGGTKVEIK
B12: 368_B08 (antibody, V domains shown)
VH: EVQLLESGGGLVQPGGSLRLSCAASGFTFDSYGMNWVRQAPGKGLEWVSSINYNGGYTSYADSVKGRFTISRDNSKNTLYLQMNSLRAEDTAVYYCARAANWHDTHLDYWGQGTLVTVSS
VL: DIQMTQSPSSLSASVGDRVTITCRASQSILTYVNWYQQKPGKAPKLVIYAATSRASGVPSRFSGSGSGTDFTLTISSLQPEDFATYYCQQSYENPLTFGGGTKVEIK
B13: 374_H11 (antibody, V domains shown)
VH: EVQLLESGGGLVQPGGSLRLSCAASGFTFSSYSMNWVRQAPGKGLEWVSGINYNGGYTSYADSVKGRFTISRDNSKNTLYLQMNSLRAEDTAVYYCARGANWHDTALDYWGQGTLVTVSS
VL: DIQMTQSPSSLSASVGDRVTITCRASQSIISYVNWYQQKPGKAPKLVIYAATSLHSGVPSRFSGSGSGTDFTLTISSLQPEDFATYYCQQSYSNPLTFGGGTKVEIK
B14: 374_G11 (antibody, V domains shown)
VH: EVQLLESGGGLVQPGGSLRLSCAASGFTFSDYSMNWVRQAPGKGLEWVSGINYNGGYTSYADSVKGRFTISRDNSKNTLYLQMNSLRAEDTAVYYCARGANWHDTALDYWGQGTLVTVSS
VL: DIQMTQSPSSLSASVGDRVTITCRASQSIISYVNWYQQKPGKAPKLVIYAATSLASGVPSRFSGSGSGTDFTLTISSLQPEDFATYYCQQSYDSPLTFGGGTKVEIK
B15: 368_B03 (antibody, V domains shown)
VH: EVQLLESGGGLVQPGGSLRLSCAASGFTFDDYGMNWVRQAPGKGLEWVSGINYNGGYTSYADSVKGRFTISRDNSKNTLYLQMNSLRAEDTAVYYCARAANWHDTALDYWGQGTLVTVSS
VL: DIQMTQSPSSLSASVGDRVTITCRASQSILTYLNWYQQKPGKAPKLVIYAATSLASGVPSRFSGSGSGTDFTLTISSLQPEDFATYYCQHSYENPLTFGGGTKVEIK

The target in the assay is human Fc (human). The experiment in a line: ELISA, negative control.
With B1, the optical density worked out at 0.211 OD.
B2 yielded an optical density of 0.173 OD.
Turning to B3, the optical density was 0.205 OD.
For the molecule B4, the optical density amounted to 0.174 OD.
B5 showed an optical density of 0.251 OD.
Consider B6, for which the optical density was determined as 0.221 OD.
Molecule B7 returned an optical density of 0.223 OD.
Molecule B8 returned an optical density of 0.193 OD.
For B9, the optical density is 0.223 OD.
Regarding B10, the optical density worked out at 0.188 OD.
B11 gave an optical density of 0.206 OD.
For the molecule B12, the optical density is 0.314 OD.
B13 had an optical density of 0.169 OD.
Regarding B14, the optical density turned out to be 0.179 OD.
The molecule B15 displayed an optical density of 0.297 OD.
